This is an account of results in paper PMC11472163, “Crystal structure and nucleic acid binding mode of CPV NSP9: implications for viroplasm in Reovirales”.

Series [1] addresses BmCPV1 NSP9^ΔC (1–286 amino acid residues, lacking residues 287–320), expressed in E. coli (Bombyx mori cypovirus 1 (BmCPV1)). Nature of the series: AUC.
The target is the same in series [2]. In words: SEC; […]; 10 mM HEPES pH 7.5, 100 mM NaCl; […].
Series [3] has as its target T1, NSP9ΔC (Bombyx mori cypovirus 1 (BmCPV1), UniProt O72505 1-286). Nature of the series: EMSA; two sequential bands; 2:1 dimer:NA; […]; SEC: 10 mM HEPES pH 7.5, 100 mM NaCl. Particulars: protein: recombinant; chain copies: 2; label: 5' 6-FAM. In general terms: Mobility shift assays separate free from complexed probe on a gel.
Series [4] addresses T1, NSP9ΔC. Nature of the series: EMSA; no significant difference from DNA; […]; SEC: 10 mM HEPES pH 7.5, 100 mM NaCl. Particulars: protein: recombinant; chain copies: 2; label: 5' 6-FAM.
Series [5] deals with T1, NSP9ΔC. In words: EMSA; 1:1 NSP9ΔC dimer:ssDNA; […]; SEC: 10 mM HEPES pH 7.5, 100 mM NaCl. Particulars: protein: recombinant; chain copies: 2; label: 5' 6-FAM (EMSA).

Regarding “BmCPV1 NSP9^ΔC (1–286 amino acid residues, lacking residues 287–320), expressed in E. coli (domain or fragment)”, the stoichiometry N in series [1] and in series [2] was 2 in each case.
Take AGTAAATCCCAGGCGCTCGGGTCGTTAGCC (ssDNA) [30 nt ssDNA]: the binding result with NSP9ΔC [3] is listed as “binds”.
For the molecule AGUAAGCUGUUAGCC (ssRNA) [15 nt ssRNA], in the series with NSP9ΔC [4], the binding result is given as “binds”.
Turning to AGTAAGCTGTTAGCC (ssDNA) [15 nt ssDNA], in the series with NSP9ΔC [5], the binding result is “binds”.
With AGUAAAUCCCAGGCGCUCGGGUCGUUAGCC (ssRNA) [30 nt ssRNA], in the series with NSP9ΔC [3], the binding result is on record as “binds”.

What is called stoichiometry N is a count of units in the complex or per binding partner.
